# Experiment: soluble on expression in E. coli; label from the status in PepcDB or PDB records
row,Sequence,soluble on expression in E. coli
1,MSLTYYLSIDYGGTNTKALIFDKLGHQIAVSSFETLKNETQSGHRQVNLVKTWNAITSAIREVIQISKLSPEQISAVACIGHGKGLYLLDNKLEPLEQGILSTDNRAKDLAQYFESKLDNIWELTRQHIFPSQSPVILRWLKDYQPETYKSIGAVLSAKDFIRYKLTGKVQQEYGDASGNHWINFQTGTYDPAILDFFGIREIENSLPELIDSADLVPGGISSQAAKETGLVEGTPVVGGLFDIDACALGSGVLESDTFSVISGTWNINTYPSLKPAKQDSGLMTSYFPDRRYLLEASSPTSAGNLNFMLKMLMHQEIDNAKSSGGSIYDNLEEFLTHTDATHHGLIFFPFLYGSNTSQDASACFFGLTTKSTKSQMIRAVYEGIAFAHKQHITDLIKSRGSVPKIIRFSGGATNSPAWMQMFSDILNFPIETVEGTELGGLGGAILARHALDKISLKEAVQDMVRVKAIYKPQLSEVKGYKKKYHAYQKLLETLDPIWSELGHLNEGHHHHHH,soluble
2,MSLSTHYHAHKPNVPIIMEDVFGWVREGNAFQVRVWLDDHEHDLNVGDDHAFSLLHWAAKGGHVAIAEMLLSRGARVNSTNMGDDTSLHLAAAHGHRQIVVKLLSRKADVNATNEHGMTPLHYACFWGYEQIAEDLISCGAAVNVCNKKGMTPLDVCQPMCKNTILEIAQEHGQSPNDRVPFKDTTWKGTKSRTRDATLSRYTGVDVSSLNLITKIAESHSGELWRGKWQGNDIVARILNVQEVTARISRDFQTEFPALRIFAHPNICAVLAAANQPPNLVIISQYMPFGSLYNVLHEQSSVVIDHGQAVRFALDIARGMSYLHSLDPMLLRFYLSSKHVVVDEELTAKLSMADTKFSFQEVGKAYSPAWMSPEALSRAPEDLNIRAADMWSFAILLWELNTREVPFSDLPPMECGMKIALEGLRVHIPPGIARNMNRLMNICMNEDPGRRPNFDQIIPILERMIL,not soluble
3,AIASRAASLRAELTSLANAFEEERISSAERLDADLVRQAVEQAKPENLEQWKQVVHDATAKLQQFWEDSEQALIRETYALATSYLRESDDEVHRLQMTKKALEEQLETERRRSTRIEEQLAALQSRLLDSAAPAATTPADDARTQQEVLRSELQGFMQELVRNQRESLRVLQEELQRVREEASVREENLLRQIAHLKTELAVARTDNEVSSRQLRQLETSAGREEVQDELGPGTIWPPHLTPRRGHRRFQRHNRLEDAPAPPEF,soluble
4,MGSDKIHHHHHHLKKITNFRSLGGYQNAHGQMVKDGLIFRSGQLFELEDDQSHYLGQTLGIKHIVDMRSDDERTEFPDTVWEGADYAVLDILKDATANNASLGRMITEKGNVHENMLATYEQLALSDSAKTGYRQFIQGLLRPNEPTIFHCFAGKDRTGVGAALILKILDVSEQDIMADYLQTNAERTVANEEILAGLKERGFTDQQLKSIGEALKVDADYLRRYFQVIDQQFGPFQQYLREGLKLSAGEIAQFRDLYLQK,not soluble
5,MAQGNPLTPEEIELLHAGDEENDNTDTLMVIRVPNDGSSATAISIPRDTYVHDENVGNLKINGVYRAYKNRKASELVNSGESDQKHIDELSKEAGRKALISSISDLTGVTVDHYAEVGLLGFVLLTNAVGGVDVCLNNDVYDEFSGADFKAGQQTLRDGQALAFVRQRHGLPRGDLDRIVRQQAFMASLVAKVLSSGTLTNPSKLSDLGEAVSRSVVIDKNWDVMSFANQLQNLAGGNVKFNTIPVTSIDGVGDYGESVVTVDKNQVHQFFDRLLNGNNGEETPTSDSEAPAENPHTSTTIDVLNATSTTGLASQVAGHLSAKHYTIGNIGNALEGMYHESQIVAADPNNEAVKAIAAELGGLPITQRNDLEHHHHHH,soluble
6,MGSDKIHHHHHHMNFQRDFNDLLNALLTDWRNQFPDADLSQGSLIYMKSACLASALWGLYKYQEWISKQIFPDTAETKYLEHHAWVRGLSRRSGETDEELLARLLEYIRRPPAGGNKYDYQKWALEIDNVANAWCIPLSQGPGTVDVIIAADETVTGSEIPSSHALTGTTTAITENKLVDGAADFMATGDGGPVRIGDIAVNDDTGGQAVITAVDNATQLTLDTDIFSSIGQSYTLKSLTAQVGEYIDDVRPVTVSIVRILPPAVTLQDVTMTVTGTVNKEAIASAITSLLRSLVPGQTLYLSRLIAIAIQEGATNASISAPAADMSPGPYEMLRPGTITVS,not soluble
7,MAHHHHHHMSAWASGDTLERLKLKPETAPSNRGNGRQASADATSSTSVKATSNADAEGVVQASMAATIASTNKNKNKKALEGKVSKKNAPKNTAHTADEKQPPTQEQTASSSGGAKRNEPKKGASDSRDCPVTLPSDVAELVVNAFTFIGTVQALRAGTSTDGRESMLSAAVRAPEFVPQRRDYAVQNATSGSDTQHVGELASNAYPMHHHHHHHHYQLHQQQKQPQHTPLVSTSRVQQQEQPPWAPYYNDQQHRQHHSVHHHRHQQQQQQLAYGQPDCTTGKMYHDAYSPVDYDMNLCAAPPYSRMYSGYPGMCMGANMLPNMSGYGGLALRRPLPYFPQQQNQVTAYKSTHVGQQQPWMRNDSGPSNARKGSGAGQWYPGGQAGFNDALSVWNQQRNAGNWARQAEQSGPAGAHTSSAP,not soluble
8,MSVKQEQCLIKVVSYDSNWPVQFEQEAERIKKALGSNCIEIHHIGSTSVPDLVAKPVIDMIPVVLDISKVDGANAAIRALGYEAKGEYGIPFRRYFQKGDNRLTHHAHVFELGNPEIERHLKFRDWMRMHPKDREAYARLKQELARRYSDDITAYCLGKEDFIATIDKKAGFNGLRMVKALTTREWDKVRHFRQFYFFDKAGLSDPYTWTFEHNAHVHFVLFQGSEITGYAHLQLWSHNRAALRIIVIDELKRNHQYGTRFLALCEKWLKSQGYQSLHVESSPDALKFYRNNGYIDMPFDDPDGYEGDPRDTAVGKIL,not soluble
9,MGSDKIHHHHHHMPVIKFSYGDSMSTPLDSDLLRTFLAVADTGNLTRAADTVRRTQSAVSMQIRKLEELIGSALFERHSRGVILTDDGRRLADNARRIVSLLDDTAAAMRSPALEGSVRIGISEEYVNSTLPKALGAFAAIHPGVEVTVRQETSMANSAALAAGELDIAVVFEPGGRSRNEVLMVNPTVWATCDQHGAHERRPVPIATYTYAEGGWCDELARRSLQSRGIESRIAYVSRTSGGLIAALISGLAIAPLSRTAIPAGCRELTEEDGFGIIDMTNVVLRTRRGNRSPTVDAMADAIRRAFRAPAEKEKEEVRSTTTDG,not soluble
10,MSLQASEQVPSIQIGEPGVTVEAGDHICAFYPTLAERDEILLPYLSEGMLAGEKCIAVLDTDDLDGIRQAVSGQGLPSPKDGNQLELRRSRNAYLANGSFETEAMLKFWEDHVGAAVAEGFPFARVAGEMTWALSNLPGVDQLVGYEAKLNRLLPRYPQVVLCLYELERFDGEVLVDVLKTHPKVLLGGMVLDNPYYLEPEEFLASREGHHHHHH,soluble
11,MSLEALGVAVVGFGWMGRVHTQAYARVRHHYPHLALRPELVTVAEEVPGRAEEAAAQFGFASTTRDWREVAADPRVHAVSITAPNFLHREIAVAMAGAGKHIWVEKPVGLSSDDARAVADAVSGAGVQGAVGFNYRNAPAVETARRLIAAGEIGTVTHARLRFFSDYAAHPEGALTWRYERERGGSGVLGDLASHGADLARFLLGDIASLTADTAVFVPERARPASATAGHARATGGEPGPVENEDYVSCLLRFASGARGVLEACRVSVGEQNNYGFEVHGTTGAVFWDFRRMNELRVSRGTEYQDQPVSTVYVGPGDGEFAAFQPGAANAMGYDDLKVVEAHRFLRSIAEGTPYGATLSDAVHSAAVLEAMSRSAERGTWVSPGEGHHHHHH,soluble
12,MKRLLLSAAILSSMALFNVNAQELKTSADMKGSFKKNVVLEVFTAEWCGYCPGGKERIAKAIEMLDDEYKERVFQTFVHYNDGISKKWPRVGQLFIALDQTLGIPGFPTFSVCRMEKKGENLSIGAPIAIKNKIMKGFGDGTAPAEVNLKLTKGATPEDVCTATFTGKVDADLIGKPLMLTAYVLKNNMKPINPQNGAGDGYLHQHTVLMILSTDVKGDALNIAADGSFTIKKEFKLDGFEIKDTDVLAFVHHPMSNAENHSIINAGQESLDKAEPTATEQIVATPSVKAYVQNGKIVVEEEYSKMEVFNATGQLVKNESLVPGVYVVRITANGVMYFLKVLVP,not soluble
13,MHHHHHHSSRENLYFQGTLPLWIGKPGDKPPPLCGAIPASGDYVARPGDKVAARVKAVDGDEQWILAEVVSYSHATNKYEVDDIDEEGKERHTLSRRRVIPLPQWKANPETDPEALFQKEQLVLALYPQTTCFYRALIHAPPQRPQDDYSVLFEDTSYADGYSPPLNVAQRYVVACKEPK,soluble
14,SPTPVELHKVTLYKDSGMEDFGFSVADGLLEKGVYVKNIRPAGPGDLGGLKPYDRLLQVNHVRTRDFDCCLVVPLIAESGNKLDLVISRNP,soluble
15,MSGNSSTDMYLFKKSLKELKGKKGKGTELISVYVPAGRRLSDISQYLRQELSQSSNIKSKTTMKNVQSAIEVILQRLKLLKEPLEMGVIIFAGMIPRGGPGTEKMEVYVLEPPEPVKTFVYRCDSLFYTDPLEDFIQDTEVYGVILVDRNEATIGTVKGKTITVLKKLTSGVPGKFKAGGQSARRLERLIDDAAHQFMVRIGEYATESFMPILEEKKLKGLLLGGPGNTKNEFAEKDYLHHELKKKIIDTFDLCYTEEFGIRELLDKASDLLRDLDLMKEKNLIQKFFKELIKDDGGLSAYGEAQVMKYLEMGAIDTLIVTEDIGITRVTVKCNNCDYAQEVNVKTNEMFKFEEQLKTKACPTCGGAMYIDEEKDIIEHLSDLCHMHNTDIIVVSTDTEEGSQISRAFKGMAAILRYKL,not soluble
16,MIITTTNGIEGKRVVEYKGIVCGEVISGVDFIKDFAAGLTNFFGGRSKSYEGELIEAREGAIREMKERAIQMGANAIIGVDIDYEVLGQGGNMLMVTASGTAVVIE,soluble
17,HHHHHHGSMTIKPLRKAVFPVAGLGTRFLPATKAMPKEMLPVVDRPLIQYAVDEAVEAGIEQMIFVTGRGKSALEDHFDIAYELEATMAARGKSLDVLDGTRLKPGNIAYVRQQEPMGLGHAVWCARDIVGDEPFAVLLPDDFMFGQPGCLKQMVDAYNKVGGNLICAEEVPDDQTHRYGIITPGTQDGVLTEVKGLVEKPAPGTAPSNLSVIGRYILQPEVMRILENQGKGAGGEIQLTDAMQRMIGDQPFHGVTFQGTRYDCGDKAGFIQANLAVALSRPDLEPAVRAFAVKALG,soluble
18,MAHHHHHHMKKNLIRWGEKVTDELTKVTLTDKPLGTDFDQGIENLQIKFKELFKIWKNASNKLINDFTSKLDTTSYLSSLQNFVDNEYEFYDSASSVCDEETNS,not soluble
19,MSLDPHAPLAERLRPRTLDDVVGQSHLLGPGKPLRLAFDSGKLHSMILWGPPGVGKTTLARLTAQAFGADFIAISAVLSGVKDIREAVERARMNQKLGRATILFVDEVHRFNKSQQDAFLPHVESGLFTFIGATTENPSFEVVGALLSRAQVYVLKSLTPDELGRLMQRALQELPSLKLADGVDKLLAAYADGDARKLLNLLEQLDTAARTAQVEEADAAFVENALAQSLRRFDKGGEAFYDQISALHKSVRGSDPDASLYWLVRMLDGGADPRYLGRRLVRMASEDIGMADPRALRLALDAVETYERLGSPEGELALAEACLYLACAPKSNAAYVAYNAARAFVEANPSNDVPIHLRNAPTKLMKELGYGRAYRYAHDEPEAYAAGERYFPDDIAEQQFYEPTPRGLEGKIAEKLAHLRELDDEAEKEGHHHHHH,soluble
20,MKVSDILTVAIRLEEEGERFYRELSEHFNGEIKKTFLELADQERIHAEIFRKMSDQENWDEVDSYLAGYAFYEVFPDTSEILRRKDLTLKEVLDIAISVEKDSIILYYELKDGLVNSDAQKTVKKIIDQEKEHLRKLLEMKREST,not soluble
21,MSLKEDFDLKTHIESSGHGVDTCLHVVLSSKVCRGYLVKMGGKIKSWKKRWFVFDRLKRTLSYYVDKHETKLKGVIYFQAIEEVYYDHLRSAAKKRFFRFTMVTESPNPALTFCVKTHDRLYYMVAPSAEAMRIWMDVIVTGAEGYTQFMNEGHHHHHH,not soluble

# — the DeepSol protein solubility set
